# Assay results published in the supplement of paper PMC9170038.
# System: MS2 coat protein
# Experiment: apparent KD of MS2 coat protein; designed switch direction (-1 OFF switch, 1 ON switch): -1; higher = weaker reporter binding
# How it was run: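 The buffer was Tris-HCl pH 7.5 with KCl, MgCl2, BSA, DTT, tRNA and Tween-20. In it, SNAP-549-labelled MS2 coat protein was titrated in doubling steps from 0.7 or 1.5 nM to 3 µM over chip-bound RNA switches transcribed by stalled E. coli RNA polymerase on Illumina chips. Apparent KD is the per-design median over clusters of curve fits to normalised fluorescence.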
# [1] = input ligand: microRNA oligo, concentration not stated
# [2] = Eterna round: R95, input ligand: FMN 200 uM
# [3] = Eterna round: R95, input ligand: microRNA oligo, concentration not stated
# [4] = Eterna round: R95, input ligand: none
Sequence,apparent KD of MS2 coat protein (input ligand: FMN 200 uM) [nM],apparent KD of MS2 coat protein [1] [nM],apparent KD of MS2 coat protein (input ligand: none) [nM],apparent KD of MS2 coat protein [2] [nM],apparent KD of MS2 coat protein [3] [nM],apparent KD of MS2 coat protein [4] [nM]
"UGUUGUUACGCAGGAUAUGAGGAUCACCCAUAGAAGGAUAUCGAAAGAGAAGGUCUGAGGAUUACCCAGAAGGGCGGGUUAACA [pwkr exNG2 2xF5 2xFMN.1] (Eterna round: R96, puzzle: Exclusion NG 2)",714,153,139,,,
"AGUAACCGUCACGAAAGUGAUGGUUACACAAGCAUAUGUACAUGAGGAUCACCCAUGUCCUCAAUUGCUCGUCUUAU [Sensor 3 - 54] (puzzle: Sensor v3, turn-off variant 2)",,,,167,250,226
"UUGCCUAGUGUUAGGAUAUGCGACGGGUGACCGUUGCAGAAGGAACAUGAGGAUCACCCAUGUUUAAUAAAAUC [JL-BMX4-4.44 ViennaUCT mod] (Eterna round: R97, puzzle: Brourd's mod of Exclusion 4)",35.9,,13.2,,,
"AGACACUUAGGAUAUCAGGCAAUGCACAUGAGGAUCACCCAUGUGGUCUUGGUCCGGGACUGAGAAGGAAGAGUCC [EX5 B.10] (Eterna round: R97, puzzle: Exclusion 5)",20.1,,19,,,
"AGUCCUGCGGUGAGGAUAUAUUUGUAGCCAUUCAGGUAGAAGGCACUUGAGGAUCACCCAAGUAAAGAACCAAC [Releat] (Eterna round: R97, puzzle: Brourd's mod of Exclusion 4)",39,,28,,,
"AUAUAGCGAGGAUAUACAUGAGGAUCACCCAUGUGGUAGUAGAUACGGUAGAGAUAGUGUAGAAGGCGCUAUGA [EX3 #9] (Eterna round: R97, puzzle: Exclusion 3)",226,,233,,,
"CGCUAUGCCGAGGAUAUUCUUGGUAUGCAUCUAGGAGAAGGCGGCACAUGAGGAUCACCCAUGUCAAAACAUAU [Eternabot (L1) Solution 97] (Eterna round: R97, puzzle: Exclusion 6)",29,,28.4,,,
AAUGCGAGUGUUAGGAUAUACAAGGAUCCAUAUUUGUAGAAGGAACAUGAGGAUCACCCAUGUAAGGGAAUAAA [Enususxebe] (puzzle: Brourd's mod of Exclusion 4),,,,166,59.5,65.7
"UAACUACAUGAGGAUCACCCAUGUCAGGAUAUGCCAUUAAAUUAACAUCAACAUACGGGUAGAAGGGACAACGU [1st #2] (Eterna round: R97, puzzle: Exclusion 1)",22.2,,25.6,,,
"GCUCAGUAAGGAUAUUGUUUAGGAGCUAUAGGCGUAGUUAACAAGAAGGUACAUGAGGAUCACCCAUGUCCAUC [Eternabot (L2) Solution 36] (Eterna round: R97, puzzle: Exclusion 4)",17.7,,15.1,,,
"UCAUGUCCUGAGGAUAUGUAGCGGAUAAACGCAACAGAAGGCAGGACAUGAGGAUCACCCAUGUGCGCCUUUCA [Exclusion 6 Mod2 of JL of Mod of Letion by ViennaUCT] (Eterna round: R97, puzzle: Exclusion 6)",26.7,,84.5,,,
"CAGUCCGUUUGAGGAUAUCUCUGGAUCGCCAUGAGAGAAGGCAAACAUGAGGAUCACCCAUGUGGUACCGACUCAACGUCGACA [Eternabot solution 10] (Eterna round: R96, puzzle: Exclusion NG 1)",20.7,11.6,16,,,
"CUUUCGUCUGUGGGUGGUGACAUGAGGAUCACCCAUGUUUUGCUCGUCUUGUCCCGGGCCCGGCGCCCGGGCCCGGG [-38.7, -62.5, A 8%] (Eterna round: R97, puzzle: Sensor, turn-off variant 1)",1210,,1340,,,
"CCAUAGGGAGGAUAUCCAAUAUAUGACAUGAGGAUCACCCAUGUUUCCACUCGUACCUCCGGAGAAGGCCCAUAAC [Ex5 #8] (Eterna round: R97, puzzle: Exclusion 5)",24.4,,21.4,,,
